± gives the uncertainty stated by the source.
B1: Nuclear receptor subfamily 4 group A member 2, residues 260 to 336; numbered along this chain, P43354 (parent)
chain: EGLCAVCGDNAACQHYGVRTCEGCKGFFKRTVQKNAKYVCLANKNCPVDKRRRNRCQYCRFQKCLAVGMVKEVVRTD

Variants of: B1
Experiment: abundance fitness (aPCA) (normalised: wild type 0, dead -1); higher = more abundant; growth selection in yeast, the domain comes from the species named
Details: Homo sapiens

Abundance fitness, by site and new letter:
N43: A 0.245 ± 0.12; V -0.014 ± 0.1; R -0.014 ± 0.15; P -0.219 ± 0.21; M -0.173 ± 0.27; T -0.505 ± 0.33; W -0.011 ± 0.16; Q -0.283 ± 0.29; S -0.123 ± 0.15; E -0.198 ± 0.16; I -0.231 ± 0.24; L -0.059 ± 0.14; G -0.202 ± 0.12; F 0.046 ± 0.46
Q57: W -0.28 ± 0.074; A 0.068 ± 0.097; L -0.034 ± 0.065; S 0.083 ± 0.12; M 0.463 ± 0.35; E -0.083 ± 0.11; P 0.187 ± 0.25; F -0.177 ± 0.13; R -0.289 ± 0.11; V -0.126 ± 0.054; Y -0.158 ± 0.19
R53: C -0.078 ± 0.061; G 0.06 ± 0.037; Y -0.3 ± 0.37; V 0.019 ± 0.042; F -0.101 ± 0.088; A 0.078 ± 0.11; M -0.28 ± 0.25; D -0.175 ± 0.18; E -0.034 ± 0.12; I -0.043 ± 0.22; L -0.12 ± 0.061; S 0.084 ± 0.084; Q 0.172 ± 0.3
K50: D -0.215 ± 0.17; L -0.155 ± 0.073; A -0.098 ± 0.088; E 0.175 ± 0.15; G -0.045 ± 0.037; P 0.356 ± 0.29; S -0.001 ± 0.097; T 0.102 ± 0.24; F -0.055 ± 0.094; C -0.115 ± 0.074; W -0.031 ± 0.057; Y 0.024 ± 0.13; R -0.193 ± 0.082
R30: S -0.086 ± 0.092; F -0.032 ± 0.36; V -0.216 ± 0.086; K -0.016 ± 0.38; C -0.086 ± 0.19; D -0.032 ± 0.28; E -0.105 ± 0.14; N -0.126 ± 0.17; W -0.16 ± 0.096; M -0.148 ± 0.2; Q -0.005 ± 0.13; T -0.028 ± 0.13; I -0.163 ± 0.23; G -0.235 ± 0.072
C56: F -1.21 ± 0.38; D -0.707 ± 0.37; E -0.894 ± 0.33; L -1.09 ± 0.23; G -1.05 ± 0.073; S -0.667 ± 0.23; R -1.06 ± 0.19; A -0.941 ± 0.28; W -0.908 ± 0.097; V -1.05 ± 0.11
C46: M -0.993 ± 0.35; S -0.754 ± 0.19; W -1.03 ± 0.13; E -1.09 ± 0.46; L -0.609 ± 0.1; A -1.16 ± 0.37; V -0.851 ± 0.077; R -1.07 ± 0.22; G -0.897 ± 0.056
C59: A -0.549 ± 0.12
F28: M -0.176 ± 0.11; P -1.06 ± 0.35; I -0.262 ± 0.18; Y 0.23 ± 0.26; W -0.095 ± 0.066; N -0.707 ± 0.43; Q -0.484 ± 0.13; S -0.381 ± 0.095; A -0.1 ± 0.063; C -0.483 ± 0.36; L -0.15 ± 0.077; T -0.049 ± 0.083; K -0.981 ± 0.33; V -0.017 ± 0.054; H -0.114 ± 0.29; E -1.29 ± 0.45; R -0.75 ± 0.11; D -0.747 ± 0.5
D49: F -0.204 ± 0.092; L -0.222 ± 0.078; A -0.135 ± 0.084; C -0.67 ± 0.14; W -0.21 ± 0.062; M -0.11 ± 0.37; T 0.013 ± 0.23; R -0.22 ± 0.073; E 0.033 ± 0.097; V -0.326 ± 0.049; G -0.073 ± 0.035; Y -0.148 ± 0.27
N35: M -0.173 ± 0.11; K 0.033 ± 0.12; Y -0.139 ± 0.15; A 0.011 ± 0.068; V -0.487 ± 0.12; E 0.071 ± 0.094; F -0.089 ± 0.35; L -0.085 ± 0.087; W -0.407 ± 0.12; T -0.137 ± 0.13; S -0.198 ± 0.085; Q -0.081 ± 0.1; D 0.118 ± 0.12; H -0.13 ± 0.14; I -0.127 ± 0.27; R -0.136 ± 0.088; C 0.141 ± 0.22
K29: D 0.11 ± 0.21; N -0.138 ± 0.33; S 0.121 ± 0.11; G -0.178 ± 0.074; M 0.296 ± 0.19; Y -0.344 ± 0.42; C -0.239 ± 0.27; P -0.126 ± 0.2; T -0.066 ± 0.16; W -0.253 ± 0.19; L 0.008 ± 0.078; A 0.014 ± 0.096; R -0.123 ± 0.08; H 0.071 ± 0.17; I 0.214 ± 0.21; Q -0.097 ± 0.12
Y38: C -0.026 ± 0.49; V -0.057 ± 0.39; H 0.149 ± 0.23
Y58: C -0.173 ± 0.064; R -0.345 ± 0.12; A 0.041 ± 0.085; F 0.051 ± 0.11; V -0.761 ± 0.075; E -0.055 ± 0.16; W -0.063 ± 0.052; L -0.441 ± 0.079; D -0.123 ± 0.17; G -0.298 ± 0.041; S 0.129 ± 0.078
V48: F -0.407 ± 0.11; M -0.032 ± 0.27; C -0.156 ± 0.067; L -0.175 ± 0.067; S -0.091 ± 0.17
